Fewer inactive variants are shown than the library holds.
B1: TPR 5TU (parent)
chain: GGAUCUUCUCGAUCUAACAAAAAAGACAAAUCUGCCACAAAGCUUGAGAGCAUCUUCGGAUGCAGAGGCGGCAGCCUUCGGUGGCGCGAUAGCGCCAACGUUCUCAACUAUGACACGCAAAACGCGUGCUCCGUUGAAUGGAGUUUAUCAUG

Variants of: B1
Assay: polymerase ribozyme fitness, log enrichment relative to wild type (log ratio); higher = more active; in vitro selection for triplet polymerase activity
Procedure, shortened: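 Mutant libraries were PCR-built and transcribed for each subunit of a heterodimeric triplet polymerase ribozyme and selected for one round in triplicate at −7 °C, frozen, before gel excision of extended constructs and streptavidin-bead capture. Input and output libraries were Illumina-sequenced, keeping genotypes with ≥10 input reads and ≥1 read per output. Fitness is a logarithmic ratio of genotype to wild-type enrichment, in base 2, using inverse-variance-weighted replicate averages.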

Variant	polymerase ribozyme fitness (log ratio)
C32U G59U G81A	-3.13
U33C G42A G81A A89G A119C C132U	≤ -4.2
U33G U55A G70A G80C	≤ -4.2
U33G U61A	-3.72
G34A G58A U90A G94A U109G	≤ -4.2
U33G C85G G117C	≤ -4.2
U33C G143C	≤ -4.2
U33A C95U A142U G143U	-4.13
C32G C85G	≤ -4.2
C32G C85U	-3.86
G34A U55A C69A C76U G80C C87G A89C A107C C116U	≤ -4.2
C32G G42C U44A G88C C95U C103G	≤ -4.2
U33G G42C G88U G124U C125G	-3.86
G34A C79U A107C C108G C116G	≤ -4.2
G34U U56A	-1.7
G34A G140A	-3.88
U33A A37G C105U A106G	-4.07
G34U A39U C43A C85U G117A	-3.98
U33G G48A G59A G84A G88A C149U	≤ -4.2
C32G C105U	≤ -4.2
G34A C95U G136A	-0.0966

Variant	polymerase ribozyme fitness (log ratio)
G34C A39C U55A A60U A73U U146G	≤ -4.2
C32U C75U G88A A115C	≤ -4.2
G34C G59A G112U A115U C125U	≤ -4.2
G34A G74U G94A C116G	≤ -4.2
C32U A39G A40C C54A G94U A142U	≤ -4.2
C32U G80U U102G A113U C125U G126A	≤ -4.2
U33G G34U	≤ -4.2
C32U G42U C79G C129A A138G U146C	≤ -4.2
C32G G48C U53C U82G	≤ -4.2
U33G G80C G92A C131A U151A	-4.15
U33A A41C C87A U130G A147G	≤ -4.2
C32G C79U C96G A142C	-3.79
G34U C85A	-3.91
U33G G86U	-3.95
G34U G67A C76U C85A	≤ -4.2
U33C G50A	-3.85
C32G U55G C79U C96G	-4.01
G34A C57G A66U A115U U134C A142U U148G	-3.95
U33G C95A	-3
U33C G68A	-3.97
U33A A40C A41U C93G	-3.86

Variant	polymerase ribozyme fitness (log ratio)
U33A G50C G81A C93G C96U A98G C103G G152U	≤ -4.2
C32G G92U U127G G152U	-3.98
C32U C85U A89C A138C	≤ -4.2
C32U C96G A142U	-3.35
U33G U53A	-3.68
U33G G46A A49C U77C A98U C99U G152U	≤ -4.2
G34U C76U A119U	-3.19
C32U G88A U145G	≤ -4.2
C32U C87U C103G	≤ -4.2
G34A C87A G141A	≤ -4.2
U33A A39G U90A U130A	≤ -4.2
U33A C95U	-4.12
C32U G59C A60C C63G C93A C99U A115G	≤ -4.2
C32U G65C U77A C87G U90C C114A U151A	≤ -4.2
G34A U145A	-0.571
C32G A49U G74U U77G A89U	≤ -4.2
U33G A39U C116A U130G	-3.98
C32U G50A A52G G58A C87G C118G	≤ -4.2
U33G G42A G58C A91G G100A	≤ -4.2
G34U C79G G92U C93G U109A G143C	≤ -4.2
C32G G94C	-4.18

Variant	polymerase ribozyme fitness (log ratio)
C32G G94A	-3.8
G34A C87U A89U G100A C103G A107U G124C U135G G140A G141C	≤ -4.2
U33G A37U A60C C75U G94U C108U	≤ -4.2
U33G G67U C85G C96G A122G G140A	≤ -4.2
G34A A49C C95U G140U G141A	≤ -4.2
G34A C57G G117A U144A	-3.39
G34U G58C C69U A91G G128A U135C	≤ -4.2
U33G U56A U90A U101G C108G A119U U135C G136A	≤ -4.2
G34A C57A C87U A89U G94U C96A U104A C105G A110U G126U	≤ -4.2
U33G A47C A52C U53A A73U C87G	≤ -4.2
G34C C76A C95U A142C	≤ -4.2
U33A C75G C76A A142G	≤ -4.2
U33G G117A U134C	-2.88
U33G C87A A142U	≤ -4.2
C32G C36U A64U C96U A107C G117U U134C A150C	≤ -4.2
C32U U53A A91C G94A C105G A121U U151C	≤ -4.2
C32U G83U G126A	-4.19
C32U C36A U55A U77G A91U G140U	-3.95
C35A C43U C87A G128A	≤ -4.2
U33G G58U A91C G143U	-3.87

Source: the RNAGym collection of RNA variant scans (doi:10.1073/pnas.2313332121)
